# In the supplement of paper PMC10724198:
# ± gives the standard deviation of the averaged measurements.
# System: Saccharomyces cerevisiae
# Experiment: protein stability index of tFT-peptide fusion (C-terminal peptide) (PSI (0-1 scale)); higher = more stable (slower turnover)
# Conditions: genetic background: wild type; temperature: 30 C
# Protocol: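 Multiplexed protein stability (MPS) profiling in S. cerevisiae. Random 12-aa peptides (tFT-X12 library) are fused to the C-terminus of a sfGFP-mCherry tandem fluorescent timer, after mCherry and a GGGS linker. Cells are FACS-sorted into 8 mCherry/sfGFP bins and deep-sequenced. The protein stability index (PSI) is the read-weighted bin average, scaled from 0 (unstable) to 1 (stable). Only peptides with >10 reads are reported; cells were grown at 30 °C in SC-His with glucose.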
# 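Also: PSI is a weighted mean of sequencing reads over stability bins, variants kept only with over 10 reads, mCherry proximal and sfGFP distal, peptide attached via GGGS linker.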
row,Sequence,protein stability index
1,GKKNNENKYDMR,0.7304 ± 0.0051
2,GKKRANQSRSLP,0.76 ± 0.19
3,GKLHKNTDEIET,0.762 ± 0.062
4,GKLKVKIYESSK,0.658 ± 0.061
5,GKLRGTGGRAGE,0.669 ± 0.012
6,GKLWTIIFPLFF,0.503 ± 0.035
7,GKPFAWVAVVGD,0.729 ± 0.051
8,GKREGRGRKRGG,0.807 ± 0.092
9,GKRYLIKKRKKT,0.698 ± 0.021
10,GKSESATLMVTV,0.697 ± 0.18
11,GKSGGAVRGCGG,0.657 ± 0.044
12,GKSGVTGAGEKR,0.681 ± 0.06
13,GKSLLPATYDYY,0.677 ± 0.04
14,GKTITNENPKGH,0.705 ± 0.021
15,GKVSVSGRELGG,0.65 ± 0.033
16,GLARPLYALYRR,0.618 ± 0.081
17,GLASLTVGAASV,0.671 ± 0.011
18,GLATISARYFCL,0.647 ± 0.064
19,GLCCFWSYRASR,0.687 ± 0.035
20,GLCHFVRLSCFC,0.5186 ± 0.0024
21,GLCRGHMSTMVD,0.641 ± 0.064
22,GLCVLVASCGRG,0.664 ± 0.15
23,GLDEVKVVSKKK,0.689 ± 0.051
24,GLDHRLALLYPS,0.736 ± 0.036
25,GLFCGLGVGTCG,0.621 ± 0.059
26,GLGEDVGLGLGW,0.669 ± 0.051

row,Sequence,protein stability index
1,GLGGNVLRVIFA,0.561 ± 0.021
2,GLGLASWGDLEL,0.739 ± 0.039
3,GLGLHKDGSTGG,0.6093 ± 0.003
4,GLGMWSVRCAGW,0.649 ± 0.0067
5,GLHVPLTGFCFC,0.63 ± 0.02
6,GLIRGFLRYPGM,0.691 ± 0.033
7,GLKWTGLEWHFL,0.693 ± 0.041
8,GLLRSHYLDRGF,0.693 ± 0.047
9,GLPRFFKNPPVV,0.6445 ± 0.0043
10,GLPWRGVGGGSG,0.719 ± 0.038
11,GLQPVGLYPFQL,0.668 ± 0.008
12,GLRFVPLPLRPV,0.73 ± 0.029
13,GLRLFAPRWPQA,0.713 ± 0.058
14,GLRLHVQCFGRV,0.699 ± 0.024
15,GLSGSPIPFIRL,0.731 ± 0.021
16,GLSSAVSPSFGR,0.598 ± 0.017
17,GLSSFIGRRGRR,0.713 ± 0.013
18,GLSSRQHPAPTT,0.693 ± 0.05
19,GLSWSSGGLMVF,0.615 ± 0.037
20,GLSYPPLQFYYH,0.689 ± 0.012
21,GLVGCDPPPPAF,0.72 ± 0.04
22,GLVGSGFVCIGM,0.697 ± 0.15
23,GLVRGGWGTVGG,0.805 ± 0.24
24,GLVVGGLRPKRV,0.68 ± 0.004
25,GLWEVVEITRRE,0.684 ± 0.049
26,GMDGWGWGGSVV,0.706 ± 0.026

row,Sequence,protein stability index
1,GMGWGTVGDING,0.709 ± 0.024
2,GMIRDKEVVGGG,0.651 ± 0.11
3,GMQPRGVRRATS,0.728 ± 0.023
4,GMRGGKGKPAET,0.728 ± 0.0096
5,GMSSWNSISFPI,0.751 ± 0.073
6,GNNPDHAYTSNI,0.682 ± 0.07
7,GNRARRSGITRF,0.809 ± 0.15
8,GNTNIYIVMRES,0.5935 ± 0.0031
9,GNTPERVQRRWE,0.632 ± 0.086
10,GPCFKSQPKSPI,0.6807 ± 0.0024
11,GPCRICNERSLI,0.613 ± 0.0062
12,GPCSLVSLFAGD,0.697 ± 0.017
13,GPEGSDMIDPWK,0.666 ± 0.13
14,GPEVRPTLTHNE,0.623 ± 0.018
15,GPGPRAASADCP,0.728 ± 0.08
16,GPLPPLHPSPTI,0.725 ± 0.016
17,GPPDLSSSRVLL,0.718 ± 0.11
18,GPPPPPPLPQLW,0.77 ± 0.037
19,GPPRTRRRSARG,0.668 ± 0.0068
20,GPPSVSPPFSPS,0.7829 ± 0.0016
21,GPRAGFRRPELE,0.733 ± 0.043
22,GPRVILALLSRR,0.6842 ± 0.0067
23,GPSHPPHLPPPV,0.6855 ± 0.001
24,GPSIRWWGGGRR,0.731 ± 0.049
25,GPSPFHPPPPER,0.554 ± 0.0094
26,GPSVGWFPSGWS,0.74212 ± 0.00021

row,Sequence,protein stability index
1,GPVTSFAPVAVS,0.617 ± 0.038
2,GPVVGGWSVVSK,0.655 ± 0.058
3,GPYDLVSAPCLG,0.753 ± 0.057
4,GQAPRARKTSTD,0.678 ± 0.014
5,GQAWVEITARDS,0.748 ± 0.075
6,GQGRGERRRVRP,0.653 ± 0.075
7,GQGSSRKSTSVK,0.7114 ± 0.0041
8,GQHSCTRVDTQQ,0.734 ± 0.011
9,GQLMRPSFSVSC,0.658 ± 0.009
10,GQSRQKNEKKIK,0.687 ± 0.0091
11,GQSSVGCYNYRR,0.676 ± 0.036
12,GRAGLDLACWWK,0.709 ± 0.03
13,GRARWVGGEGVW,0.706 ± 0.025
14,GRCGRFVGAAWG,0.741 ± 0.17
15,GRCLRITMACYI,0.646 ± 0.035
16,GREGAADGWACG,0.652 ± 0.055
17,GREREKGGKRIE,0.629 ± 0.047
18,GRFRQTVTGEGW,0.669 ± 0.087
19,GRGAGQAGKKKI,0.631 ± 0.0073
20,GRGCLGSILVFL,0.633 ± 0.047
21,GRGEKKREVDGG,0.69 ± 0.065
22,GRGGGGGAVGEW,0.683 ± 0.037
23,GRGGWPPWFKHK,0.712 ± 0.033
24,GRGLGGWARGWW,0.69008 ± 0.00035
25,GRGPRTTKAGRG,0.7 ± 0.03
26,GRGRVAAGFVAR,0.737 ± 0.039

row,Sequence,protein stability index
1,GRGTLLGLGLYA,0.692 ± 0.078
2,GRGVGACLVVVV,0.523 ± 0.022
3,GRGVGCVRRVGG,0.676 ± 0.059
4,GRGWGGALGWCG,0.668 ± 0.013
5,GRIFAGCGGGGV,0.705 ± 0.06
6,GRKKRGRKGEEK,0.631 ± 0.035
7,GRKPGGGRRAPE,0.666 ± 0.028
8,GRLFCAALPLPL,0.666 ± 0.089
9,GRLGSSRIVGKS,0.692 ± 0.017
10,GRLQRKQRKYKA,0.719 ± 0.0083
11,GRPGISESGIIG,0.7103 ± 0.0071
12,GRPTRRHRGRLV,0.709 ± 0.028
13,GRQEISVGGRRM,0.7007 ± 0.00071
14,GRRDGRWGQIVR,0.679 ± 0.0097
15,GRRRVGAVVEGV,0.641 ± 0.01
16,GRRVQRGQARGA,0.66 ± 0.024
17,GRRWVGAVVEGV,0.684 ± 0.043
18,GRSASDTRGLGL,0.672 ± 0.13
19,GRSDAPVPFDPP,0.561 ± 0.0098
20,GRSGWAWFTCRC,0.67 ± 0.059
21,GRTGETGRIGRG,0.6512 ± 0.0023
22,GRTWCFVGARPS,0.698 ± 0.17
23,GRVRETRCISYG,0.652 ± 0.11
24,GRVRIFDCVVRL,0.753 ± 0.011
25,GRVRLGMKETLS,0.713 ± 0.016
26,GRVSAVEFWFCF,0.615 ± 0.04

row,Sequence,protein stability index
1,GRWGGWGGRGCG,0.696 ± 0.023
2,GRYRNDVAVLNF,0.683 ± 0.087
3,GSAHSFTLLVLP,0.742 ± 0.043
4,GSDMRADGRIER,0.673 ± 0.039
5,GSEPCPRPCGPG,0.692 ± 0.048
6,GSFLGTSFKSEY,0.666 ± 0.029
7,GSFMECIREGIF,0.718 ± 0.058
8,GSGAICAFGFWC,0.6599 ± 0.0041
9,GSGDFWRLCISL,0.785 ± 0.1
10,GSGRRGLMGRKS,0.728 ± 0.011
11,GSGVVCTMGWRL,0.6856 ± 0.0068
12,GSHRSTWGLVPL,0.696 ± 0.067
13,GSLCAVWWCWRG,0.6372 ± 0.0052
14,GSLRLASAHGLV,0.729 ± 0.02
15,GSPMRKHVTLLP,0.808 ± 0.12
16,GSPPHTLPLHGR,0.67 ± 0.03
17,GSRCSEAQDRSD,0.713 ± 0.015
18,GSRFCPHVGICI,0.657 ± 0.019
19,GSSPLLFSLLES,0.751 ± 0.076
20,GSSRMACYCKHS,0.644 ± 0.051
21,GSSSSLDVFVVF,0.699 ± 0.085
22,GSTLGGMAWGAR,0.682 ± 0.014
23,GSTLWGMAWGAR,0.694 ± 0.017
24,GSTRWGSAEGRG,0.662 ± 0.21
25,GSVCCLSLHCFV,0.62 ± 0.033
